From publication PMC3348880, “MSMEG_2731, an Uncharacterized Nucleic Acid Binding Protein from Mycobacterium smegmatis, Physically Interacts with RPS1” (PLoS ONE, 2012)

Key:
[1] = biological target: T1, 30S ribosomal protein S1 (RPS1) (Mycobacterium smegmatis, UniProt A0QYY6 1-479); assay: SPR; 2.5 uM RPS1; fast association, complete dissociation; SPR (Biacore T100, SA chip): 25 mM Tris-HCl pH 7.4, 150 mM NaCl, 0.005% Tween 20, 25 C, 30 ul/min; details: protein: recombinant; Methods name pET28a or pGEX-6P-1; label: 5' biotin (immobilized on SA chip); single strand
T1 sequence: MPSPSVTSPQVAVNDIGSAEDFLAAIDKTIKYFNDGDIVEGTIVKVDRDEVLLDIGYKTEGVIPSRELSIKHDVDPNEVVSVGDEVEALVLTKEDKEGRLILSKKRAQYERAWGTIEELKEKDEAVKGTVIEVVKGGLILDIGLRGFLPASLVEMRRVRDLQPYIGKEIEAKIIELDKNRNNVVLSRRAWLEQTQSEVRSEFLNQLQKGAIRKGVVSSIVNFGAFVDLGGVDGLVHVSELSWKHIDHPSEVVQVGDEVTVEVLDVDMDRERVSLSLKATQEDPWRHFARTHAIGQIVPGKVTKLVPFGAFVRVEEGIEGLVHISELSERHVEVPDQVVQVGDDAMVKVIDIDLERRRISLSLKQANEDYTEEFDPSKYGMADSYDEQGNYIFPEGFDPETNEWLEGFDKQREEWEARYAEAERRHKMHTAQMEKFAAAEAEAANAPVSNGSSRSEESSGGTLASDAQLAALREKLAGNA

[2] = biological target: T2, MSMEG_2731;30S ribosomal protein S1 (RPS1) (Mycobacterium smegmatis;Mycobacterium …, UniProt A0QVX6;A0QYY6 1-454;1-479, |); assay: SPR; 2.5 uM RPS1 with 1.25, 2.5 or 5 uM MSMEG_2731; maximum response at 1:1; kinetics like RPS1 alone; SPR (Biacore T100, SA chip): 25 mM Tris-HCl pH 7.4, 150 mM NaCl, 0.005% Tween 20, 25 C, 30 ul/min; details: protein: recombinant;recombinant; Methods name pET28a or pGEX-6P-1; copies: 1;1; label: 5' biotin (immobilized on SA chip); single strand
T2 sequence 1: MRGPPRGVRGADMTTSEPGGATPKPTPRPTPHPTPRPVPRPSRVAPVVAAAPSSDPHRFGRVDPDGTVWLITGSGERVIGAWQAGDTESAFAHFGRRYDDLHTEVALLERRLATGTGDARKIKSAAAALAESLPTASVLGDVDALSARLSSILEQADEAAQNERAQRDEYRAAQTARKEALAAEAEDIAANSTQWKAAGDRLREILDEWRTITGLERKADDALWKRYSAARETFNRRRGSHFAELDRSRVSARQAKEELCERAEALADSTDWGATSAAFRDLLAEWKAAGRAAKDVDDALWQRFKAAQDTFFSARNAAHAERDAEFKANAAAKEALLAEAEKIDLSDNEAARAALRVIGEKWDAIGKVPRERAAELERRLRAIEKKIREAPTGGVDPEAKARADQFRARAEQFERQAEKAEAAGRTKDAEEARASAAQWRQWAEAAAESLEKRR
T2 sequence 2: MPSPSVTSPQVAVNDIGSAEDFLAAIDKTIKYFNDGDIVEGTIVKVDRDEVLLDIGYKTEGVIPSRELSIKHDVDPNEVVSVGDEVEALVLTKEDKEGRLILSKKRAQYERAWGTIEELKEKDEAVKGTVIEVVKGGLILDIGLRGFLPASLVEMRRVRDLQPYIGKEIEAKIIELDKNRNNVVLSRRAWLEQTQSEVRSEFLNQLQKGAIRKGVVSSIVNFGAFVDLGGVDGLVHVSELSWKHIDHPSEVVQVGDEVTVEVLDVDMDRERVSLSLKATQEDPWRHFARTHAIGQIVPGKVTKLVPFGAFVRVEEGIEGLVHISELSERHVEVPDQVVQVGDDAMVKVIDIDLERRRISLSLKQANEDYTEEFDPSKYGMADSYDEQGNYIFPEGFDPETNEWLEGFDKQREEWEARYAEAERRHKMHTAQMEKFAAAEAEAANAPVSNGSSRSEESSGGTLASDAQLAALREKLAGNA

[3] = biological target: T3, purified recombinant RPS1 (M. smegmatis, UniProt A0QYY6 1-479); assay: SPR; Biacore T100, 25°C; mixtures of 2.5 μM RPS1 with 1.25, 2.5 or 5 μM MSMEG_2731 passed over RNA immobilised on an SA chip (100 RU); 25 mM Tris-HCl pH 7.4, 150 mM NaCl, 0.005% Tween 20; details: both partners purified
T3 construct: 30S ribosomal protein S1 (RPS1) of Mycobacterium smegmatis, gene amplified from M. smegmatis genomic DNA; Cloned into pET28a or pGEX-6P-1; also called purified RPS1; ribosomal protein S1; source: E. coli BL21 (DE3), purified
T3 sequence (looked up): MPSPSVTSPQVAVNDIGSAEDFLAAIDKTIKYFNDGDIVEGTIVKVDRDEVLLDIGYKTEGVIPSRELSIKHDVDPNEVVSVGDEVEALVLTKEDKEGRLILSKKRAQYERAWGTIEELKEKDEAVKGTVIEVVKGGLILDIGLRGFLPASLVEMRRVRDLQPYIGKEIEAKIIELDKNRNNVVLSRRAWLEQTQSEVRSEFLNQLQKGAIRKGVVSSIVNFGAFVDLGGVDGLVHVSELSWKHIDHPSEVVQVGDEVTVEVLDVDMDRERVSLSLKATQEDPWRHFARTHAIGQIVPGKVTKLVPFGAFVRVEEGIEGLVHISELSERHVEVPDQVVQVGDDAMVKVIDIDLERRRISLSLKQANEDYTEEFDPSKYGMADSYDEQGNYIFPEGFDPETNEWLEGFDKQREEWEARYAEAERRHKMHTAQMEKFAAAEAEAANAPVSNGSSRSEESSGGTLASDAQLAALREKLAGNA

CACGUAUCUCGAGGAGCGGAUAUGA (ssRNA, 5' biotin) [RNA 25 nt]: binds [1]; binds [2].

B1: MSMEG_2731, N-terminal His-tagged recombinant protein (natural protein, M. smegmatis, UniProt A0QVX6 1-454, looked up)
chain: MRGPPRGVRGADMTTSEPGGATPKPTPRPTPHPTPRPVPRPSRVAPVVAAAPSSDPHRFGRVDPDGTVWLITGSGERVIGAWQAGDTESAFAHFGRRYDDLHTEVALLERRLATGTGDARKIKSAAAALAESLPTASVLGDVDALSARLSSILEQADEAAQNERAQRDEYRAAQTARKEALAAEAEDIAANSTQWKAAGDRLREILDEWRTITGLERKADDALWKRYSAARETFNRRRGSHFAELDRSRVSARQAKEELCERAEALADSTDWGATSAAFRDLLAEWKAAGRAAKDVDDALWQRFKAAQDTFFSARNAAHAERDAEFKANAAAKEALLAEAEKIDLSDNEAARAALRVIGEKWDAIGKVPRERAAELERRLRAIEKKIREAPTGGVDPEAKARADQFRARAEQFERQAEKAEAAGRTKDAEEARASAAQWRQWAEAAAESLEKRR
notes: MSMEG_2731, conserved hypothetical alanine and arginine rich protein of Mycobacterium smegmatis, 454 amino acids, three tandem repeats of DUF349; The protein tends to degrade at its N-terminus in vitro; also called full-length MSMEG_2731; recombinant MSMEG_2731; source: E. coli BL21 (DE3), pET28a, purified (Ni-NTA, gel filtration)
With B1 the “stoichiometry N” value [3] was 1.
